In patent publication US20240043859A1, “HERBICIDE-RESISTANT PROTEIN, AND GENE AND USE THEREOF” (QINGDAO KINGAGROOT CHEMICAL COMPOUND CO., LTD., priority 2020, published 2024):
Entries after “also recorded” stand apart in the source; their conditions may differ.

Columns and labels:
[1] = format: cell-based, Escherichia coli
[2] = Chromogenic reaction of degrading herbicides in bacteria: triclopyr; format: cell-based, Escherichia coli; conditions: recombinant E. coli expressing the gene
soybean William82 = assay: Spray testing of transgenic soybean T1 seedlings; format: in vivo; conditions: 2,4-D 4.48 kg/ha foliage spray, 10 days after spraying
Description: 1. Vector construction: the pQY2330 vector (see FIG. 8-1) was used as the overexpression vector, containing a Bar resistance gene that can be used as a selection marker for glufosinate. The AAD-like gene, QYD42, SEQ ID NO. 83, was linked to the Xho I restriction site by seamless cloning to construct the transgenic expression vector pQY2330, of which the expression cassette consisted of a double CaMV35S promoter, the AAD-like gene QYD42 and a […] Nos terminator.
2. Genetic transformation of soybeans: Soybean transformation was carried out using the Agrobacterium-mediated cotyledon nodes transformation method (Pareddy D, Chennareddy S, Anthony G, et al. Improved soybean transformation for efficient and high throughput transgenic production[J]. Transgenic Research, 2020, 29(968)). A monoclone of the Agrobacterium (EHA105) comprising the overexpression vector pQY2330 was inoculated into 5 ml YEP liquid medium (containing 25 mg/L Rifampicin and 50 mg/L Kanamycin) and shaking-cultured at 220 rmp/min, 28° C. for 8 hours. And then 0.2-0.3 ml bacteria solution was transferred to 200 ml YEP liquid medium (containing 25 mg/L Rifampicin and 50 mg/L Kanamycin) and shaking-cultured at 220 rmp/min, 28° C. overnight until the bacteria reached the exponential growth stage, then centrifuged at 4000 rmp/min for 20 min to collect the cells into a 50 ml centrifuge tube (sterilized). […]

Arabidopsis thaliana = assay: Herbicide resistance of transgenic Arabidopsis thaliana seedlings on plate medium (root growth); format: in vivo; conditions: plate medium with 2,4-D (0.3 μmol)

B1: QYD42: AAD-like enzyme, SEQ ID NO. 83; expressed from vectors pQY2309 (Arabidopsis), pQY2329 (maize), pQY2330 (soybean) (protein)
chain: MQITPIADATFGATVTGLRLATLDDAGFARLHAAWLQHALLVFPGQFLTNAEQIGFAKRFGPIERIGGGDIVAISNVKADGTVRQHSPAEWDDMMKVIVGNMAWHADSTYMPVMAQGAVFSAEVVPPTGGRTCFADMRAAYDALDDATRALVHQRSARHSLVYSQSKLGHVQQAGSAYVGYGMDTTATPLRPLVKRHPETGRLSLLIGRHAHAIPGLEEAESERFLEDLVAWACQPPRVVAHHWTAGDVVLWDNRCLLHRAEPWDFTLPRVMWHSRLAGHPETEAAPLV
modifications: Synthetic polypeptide, QYD42, D42
- Chromogenic reaction of degrading herbicides in bacteria: MCPA [1]: Yes
- Chromogenic reaction of degrading herbicides in bacteria: Triclopyr [2]: Yes
- Chromogenic reaction of degrading herbicides in bacteria: Triclopyr ([2]; listed as D42): slight degradation
- Resistance of T1 transgenic soybean to 2,4-D (spray) (soybean William82): no phytotoxicity; also recorded: remains normal
- 2,4-D resistance of T1 generation transgenic seedlings (seminal root growth) (Arabidopsis thaliana): showing tolerance to 2,4-D
